From patent US20220162331A1 (CHENGDU CONMED BIOSCIENCES, published 2022) come the findings set out here.

Positions count from the first letter of the chain named. Like-named read-outs stand apart in the source and are kept apart here.

For assay [1], the target named is T1, human CD73 on Calu6 cells (human, UniProt P21589 27-549).
T1 sequence (looked up): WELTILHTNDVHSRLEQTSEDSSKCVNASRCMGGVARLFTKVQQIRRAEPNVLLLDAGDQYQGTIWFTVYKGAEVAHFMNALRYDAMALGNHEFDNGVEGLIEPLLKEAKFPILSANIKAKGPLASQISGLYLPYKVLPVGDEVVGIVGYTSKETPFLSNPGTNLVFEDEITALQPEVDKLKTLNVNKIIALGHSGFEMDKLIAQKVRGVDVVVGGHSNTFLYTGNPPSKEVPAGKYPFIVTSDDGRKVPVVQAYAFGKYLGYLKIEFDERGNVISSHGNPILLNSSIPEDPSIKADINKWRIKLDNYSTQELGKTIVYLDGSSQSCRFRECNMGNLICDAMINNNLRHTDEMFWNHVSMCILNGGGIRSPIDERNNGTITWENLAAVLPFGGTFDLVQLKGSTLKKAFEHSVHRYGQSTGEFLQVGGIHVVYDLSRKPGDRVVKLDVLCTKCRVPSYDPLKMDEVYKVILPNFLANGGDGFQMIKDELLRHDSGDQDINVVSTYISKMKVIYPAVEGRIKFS
Put plainly: cell-based or functional assay.

For assay [2], the target named is T2, recombinant human CD73 extracellular domain (Trp27-Lys546) with C-terminal 6-histidine tag (human, UniProt P21589 27-547).
T2 construct: also called hCD73; hCD73-cHis
T2 sequence: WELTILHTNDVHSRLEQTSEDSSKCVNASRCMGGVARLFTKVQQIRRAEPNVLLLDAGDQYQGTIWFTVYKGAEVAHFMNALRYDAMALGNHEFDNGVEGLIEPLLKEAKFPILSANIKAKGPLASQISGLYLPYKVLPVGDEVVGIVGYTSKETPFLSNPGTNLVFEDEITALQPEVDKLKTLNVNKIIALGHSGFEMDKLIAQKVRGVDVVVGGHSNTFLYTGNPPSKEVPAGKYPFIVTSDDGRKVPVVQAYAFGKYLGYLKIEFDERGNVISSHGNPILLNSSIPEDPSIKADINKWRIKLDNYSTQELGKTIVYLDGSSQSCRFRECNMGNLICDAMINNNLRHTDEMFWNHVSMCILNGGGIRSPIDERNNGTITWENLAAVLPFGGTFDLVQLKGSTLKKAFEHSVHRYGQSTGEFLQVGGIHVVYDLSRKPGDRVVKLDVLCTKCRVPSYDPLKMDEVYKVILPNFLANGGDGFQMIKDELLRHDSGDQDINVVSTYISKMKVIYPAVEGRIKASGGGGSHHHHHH
Put plainly: SPR, Biacore T200, antibody captured on Protein A chip, hCD73 ECD as analyte, 1:1 Langmuir. The protocol:
The affinity of CD73 antibody was determined by plasma surface resonance on Biacore T200. At room temperature, the antibody concentration was diluted to 0.5 μg/mL with 1×HBS-EP buffer (prepared from HBS-EP+Buffer 10×, GE, BR1008-26), the Protein A chip (GE, 29-1275-56) was coated with a flow rate of 10 μL per minute, the capture time was about 40 seconds, and the coated RU value was controlled to be about 100 RU. The recombinant human CD73 extracellular domain protein was diluted to 3 μg/mL with 1×HBS-EP buffer, diluted to two-fold gradient, a total of 6 concentrations, 200 μL of each concentration gradient. The 1×HBS-EP buffer was used as a control, the flow rate was 30 μl/min, the binding time was 120 seconds, and the dissociation time was 600 seconds. The affinity was fitted using Langmuir 1:1 Kinetic theoretical model and analyzed by Biacore T200 Evaluation Software (Table 3).

Assay [3] concerns the target T1, human CD73 on Calu6 cells. Put plainly: cell-based or functional assay. This is another data set of the same source.
Assay [4] deals with T1, human CD73 on Calu6 cells. Put plainly: cell-based or functional assay. The source holds these as a separate data set.
The target in assay [5] is T3, human full-length CD73 on hCD73-CHO-1C11 cells (human, UniProt P21589 27-549).
T3 construct: it may be a nucleotide entry; also called CHO-CD73-1C11
T3 sequence: T1 sequence (looked up)
Put plainly: FACS on CHO-CD73-1C11 cells.

Assay [6] concerns the target T2, recombinant human CD73 extracellular …. Put plainly: ELISA, plate coated with recombinant CD73 extracellular domain.
Assay [7] concerns the target T4, recombinant cynomolgus monkey CD73 extracellular domain (Trp27-Lys546) (cynomolgus monkey, UniProt P21589 27-547 (human entry)).
T4 construct: also called cynoCD73; recombinant monkey CD73 extracellular domain
T4 chain: T2 sequence with M199T, T350A, V466I
The description is as above.

Assay [8] addresses T1, human CD73 on Calu6 cells. Put plainly: cell-based or functional assay. This is another data set of the same source.
In assay [9] the target is T1, human CD73 on Calu6 cells. Put plainly: FACS on Calu6 cells.
The target in assay [10] is T2, recombinant human CD73 extracellular …. Put plainly: cell-based or functional assay.

B1: humanized anti-CD73 antibody 6G8 VH-v8/VK-v4 (antibody, V domains shown)
VH: QVTLRESGPALVKPTQTLTLTCTFSGFSLSTSGMGVGWIRQPPGKALEWLAHIWWDEDKYYNPSLKSRLTISKDTSKNQVVLTMTNMDPVDTATYYCARRERWAWFAYWGQGTLVTVSS
VL: EIVMTQSPATLSVSPGERATLSCRASQNVFTNVAWYQQKPGQAPRVLIYSASYRYSGIPARFSGSGSGTEFTLTISSLQSEDFAVYFCQQYNSYPTFGQGTKLEIK
notes: Human IgG1 CH1-CH3 constant region and kappa constant region; also called hu6G8 VHv8 + hu6G8 VkV4
Consider B1, for which, in assay [1], the “CD73 endocytosis ratio %, 0 minute” value stood at 0%; the “CD73 endocytosis ratio %, 30 minutes” value was 28%; the “CD73 endocytosis ratio %, 120 minutes” value turned out to be 37%; the “CD73 endocytosis ratio %, 240 minutes” value is 46%. For the same molecule, in assay [2], the Kd came to 0.257 nM, the koff amounted to 8.48e-05 s⁻¹ and the association rate constant (kon) worked out at 330000 M⁻¹ s⁻¹.

B2: control antibody 11F11-huG1 (antibody, from another filing, human IgG1, V domains shown)
VH: QVQLVESGGGVVQPGRSLRLSCATSGFTFSNYGMHWVRQAPGKGLEWVAVILYDGSNKYYPDSVKGRFTISRDNSKNTLYLQMNSLRAEDTAVYYCARGGSSWYPDSFDIWGQGTMVTVSS
VL: DIQMTQSPSSLSASVGDRVTITCRASQGISSWLAWYQQKPEKAPKSLIYAASSLQSGVPSRFSGSGSGTDFTLTISSLQPEDFATYYCQQYNSYPLTFGGGTKVEIKR
As for B2, in [3], the CD73 endocytosis ratio %, 0 minute worked out at 0%; the CD73 endocytosis ratio %, 30 minutes was 28%; the CD73 endocytosis ratio %, 120 minutes turned out to be 31%; the CD73 endocytosis ratio %, 240 minutes was found to be 46%.

B3: CD73 antibody 14H10 (antibody, V domains shown)
VH: QIQLQQSGAELARPGASVNLSCKASGYSFTSYWMQWLKQRPGQGLEWIGAIYPGDGDTRYTQKFKGKATLTADKSSSTAYMQLSSLASEDSAVYYCALFSYWGQGTLVTVSA
VL: DIQMTQSPSSLSASLGERVSLTCRASQDIGSSLNWLQQEPDGTFKRLIYATSTLDSGVPKRFSGSRSGSDYSLTISSLESEDFVDYYCLQYASFPYTFGGGTKLEIK
notes: Mouse variable regions on human IgG heavy chain constant region and human kappa constant region (chimeric IgG)
As for B3, the “CD73 endocytosis ratio %, 60 minutes” value in [4] came to 33.1%. In addition, the EC50 in assay [5] worked out at 2.62 nM; in assay [6], 0.03 nM; in assay [7], 0.07 nM; in assay [9] it was 2.28 nM. Besides, the “Inhibition of CD73 enzyme activity IC50(nM), Calu6” value (“Inhibition … Calu6” below) in assay [8] was found to be 1.71 nM.

B4: CD73 antibody 6G8 (chimeric) (antibody, V domains shown)
VH: QVTLKESGPGILKPSQTLSLTCSFSGFSLNTSGMGVGWIRQPSGKGLEWLAHIWWDDDKYYNPSLKSQLTISKDTSRNQVFLRIASVDTADTATYYCARRERWAWFAYWGQGTLVTVSA
VL: DIVMTQSQKFMSASVGDRVSVTCKASQNVFTNVAWYQQKPGQSPKVLIYSASYRYSGVPDRFTGSGSGTDFTLTINNVQSEDLAEYFCQQYNSYPTFGSGTKLEIK
notes: Mouse variable regions on human IgG heavy chain constant region and human kappa constant region (chimeric IgG); also called Clone 6G8; 6G8 Chimera
Consider B4, for which, in [4], the “CD73 endocytosis ratio %, 30 minutes” value is 17.1%; the “CD73 endocytosis ratio %, 60 minutes” value was determined as 38.5%; the “CD73 endocytosis ratio %, 120 minutes” value is 22.2%; the “CD73 endocytosis ratio %, 240 minutes” value was 35.3%. Moreover, the “CD73 endocytosis ratio %, 480 minutes” value in assay [4] came out at 47.7%. In [5], this molecule yielded an EC50 of 1.91 nM. Further, the EC50 in assay [6] turned out to be 0.02 nM. Besides, in assay [7], the EC50 was determined as 0.02 nM. The “Inhibition of CD73 enzyme activity IC50(nM), Soluble CD73” value in [10] worked out at 1.03 nM. Moreover, the “Inhibition … Calu6” value in assay [8] is 1.72 nM. Moreover, in assay [2], the Kd stood at 0.18 nM, the off-rate (koff) amounted to 0.000111 s⁻¹ and the kon was determined as 617000 M⁻¹ s⁻¹. The molecule also yielded an EC50 in assay [9] of 1.03 nM.

B5: CD73 antibody 22C12 (antibody, V domains shown)
VH: QVQFQQSGAELARPGASVKLSCKASGYTFTGYWIQWVKQRPGQGLEWIGAIYPGDDDTRYTQKFKGRATLTADTSSSTAYMQLSSLASEDSAVYYCARGNWDDWDFDVWGAGTTVTVSS
VL: DIQMTQTTSSLSASLGDRVTISCRASQDISNYLNWYQQKPDGTVKLLIHYTSRLHSGVPSRFSGSGSGTDYSLTISNLEQEDIATYFCQQGDTLPWTFGGGTKLEIK
notes: Mouse variable regions on human IgG heavy chain constant region and human kappa constant region (chimeric IgG); also called Clone 22C12; mAb22C12
For the molecule B5, the “CD73 endocytosis ratio %, 60 minutes” value in assay [4] was determined as 6.1%. Also, the “CD73 endocytosis ratio %, 120 minutes” value in assay [4] came to 11.1%. For the same molecule, in assay [4], the “CD73 endocytosis ratio %, 480 minutes” value came out at 13.2%. In addition, the EC50 in [5] was 1.43 nM; in assay [6] it was 0.04 nM; in assay [7], 0.05 nM; in assay [9], 1.2 nM. For the same molecule, the “Inhibition … Calu6” value in assay [8] worked out at 0.97 nM.
